What was measured:
[1] = target: T1, Recombinant Human Neuropilin-1 (human, UniProt O14786-2 22-644, limits assumed); experiment: SPR (BIACORE), N-terminal variable domain to target antigen
T1 construct: Bought reagent used in the Biacore analyses; also called NRP1; NRP-1
Protocol: (§1) The BIACORE assay (Biacore, Inc, Piscataway, N.J.) determines the affinity of antibodies or DVD-Ig with kinetic measurements of on-rate and off-rate constants. Binding of antibodies or DVD-Ig to a target antigen (for example, a purified recombinant target antigen) was determined by surface plasmon resonance-based measurements with a Biacore® 1000 or 3000 instrument (Biacore® AB. Uppsala, Sweden) using running HBS-EP (10 mM HEPES [pH 7.4], 150 mM NaCl, 3 mM EDTA, and 0.005% surfactant P20) at 25° C. All chemicals were obtained from Biacore® AB (Uppsala, Sweden) or otherwise from a different source as described in the text.
(§2) For example, approximately 5000 RU of goat anti-mouse IgG, (Fcγ), fragment specific polyclonal antibody (Pierce Biotechnology Inc, Rockford, Ill.) diluted in 10 mM sodium acetate (pH 4.5) is directly immobilized across a CMS research grade biosensor chip using a standard amine coupling kit according to manufacturer's instructions and procedures at 25 μg/ml. Unreacted moieties on the biosensor surface are blocked with ethanolamine. Modified carboxymethyl dextran surface in flowcell 2 and 4 is used as a reaction surface. Unmodified carboxymethyl dextran without goat anti-mouse. IgG in flow cell 1 and 3 is used as the reference surface. For kinetic analysis, rate equations derived from the 1:1 Langmuir binding model are fitted simultaneously to association and dissociation phases of all eight injections (using global fit analysis) with the use of Biaevaluation 4.0.1 software. Purified antibodies or DVD-Ig are diluted in HEPES-buffered saline for capture across goat anti-mouse IgG specific reaction surfaces. Antibodies or DVD-Ig, to be captured as a ligand (25 μg/ml) are injected over reaction matrices at a flow rate of 5 μl/min. The association and dissociation rate constants, kₒₙ(M⁻¹s⁻¹) and koff (s⁻¹) are determined under a continuous flow rate of 25 μl/min. Rate constants are derived by making kinetic binding measurements at different antigen concentrations ranging from 10-200 nM. The equilibrium dissociation constant (M) of the reaction between antibodies or DVD-Igs and the target antigen is then calculated from the kinetic rate constants by the following formula: KD=koff/Kₒₙ. Binding is recorded as a function of time and kinetic rate constants are calculated.

NRP1 on the cell surface = target: T2, NRP1 on the cell surface (human, UniProt O14786 22-923); experiment: flow cytometry on cells carrying the target, antibody or DVD-Ig at 2 ug/mL
T2 construct: whole, on cells; also called neuropilin 1
Protocol: (§3) Binding of monoclonal antibodies to the surface of human tumor cell fines was assessed by flow cytometry. For example, stable cell lines overexpressing a cell-surface antigen of interest or human tumor cell lines were harvested from tissue culture flasks and resuspended in phosphate buffered saline (PBS) containing 5% fetal bovine serum (PBS/FBS). Prior to staining, human tumor cells were incubated on ice with (100 μl) human IgG at 5 μg/ml in PBS/FCS. 1-5×10⁵ cells were incubated with antibody or DVD-Ig (2 μg/mL) in PBS/FBS for 30-60 minutes on ice. […] After 30 minutes incubation on ice, cells were washed twice and resuspended in PBS/PBS. Fluorescence was measured using a Becton Dickinson FACSCalibur (Becton Dickinson, San Jose, Calif.).
(§4) The geometric mean is the n root of the multiplication product of n fluorescent signals (a1×a2×a3 . . . an). With log-transformed data the geometric mean is used to normalize the weighting of the data distribution.

[2] = target: T3, Recombinant Human MSP R/RON (human, UniProt Q04912 25-571, limits assumed); experiment: SPR (BIACORE), N-terminal variable domain to target antigen
T3 construct: Bought reagent used in the Biacore analyses; also called macrophage stimulating protein receptor tyrosine kinase
Protocol: as §1, §2

Recombinant Human DLL4 = target: T4, Recombinant Human DLL4 (human, UniProt Q9NR61 27-524); experiment: as above
T4 construct: Bought reagent used in the Biacore analyses; also called Delta-like ligand 4
T4 sequence (Q9NR61 27-524 limits assumed): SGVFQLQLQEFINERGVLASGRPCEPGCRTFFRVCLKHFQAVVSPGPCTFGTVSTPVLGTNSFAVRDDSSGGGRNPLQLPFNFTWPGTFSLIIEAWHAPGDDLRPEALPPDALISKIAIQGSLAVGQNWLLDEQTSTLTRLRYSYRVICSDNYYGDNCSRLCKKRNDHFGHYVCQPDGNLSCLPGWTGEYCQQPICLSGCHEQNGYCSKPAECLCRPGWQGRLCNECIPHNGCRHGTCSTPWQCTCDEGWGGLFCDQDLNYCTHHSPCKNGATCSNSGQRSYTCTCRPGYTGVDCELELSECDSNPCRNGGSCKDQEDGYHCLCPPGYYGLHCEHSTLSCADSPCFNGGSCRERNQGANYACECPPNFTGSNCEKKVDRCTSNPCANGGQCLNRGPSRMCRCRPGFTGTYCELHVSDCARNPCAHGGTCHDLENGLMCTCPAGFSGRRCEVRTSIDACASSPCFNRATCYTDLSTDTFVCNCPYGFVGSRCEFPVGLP
Protocol: as §1, §2

Recombinant Human PIGF = target: T5, Recombinant Human PIGF (human, UniProt P49763-2 21-149, limits assumed); experiment: as above
T5 construct: Bought reagent used in the Biacore analyses; also called PlGF; placental growth factor
T5 sequence (looked up): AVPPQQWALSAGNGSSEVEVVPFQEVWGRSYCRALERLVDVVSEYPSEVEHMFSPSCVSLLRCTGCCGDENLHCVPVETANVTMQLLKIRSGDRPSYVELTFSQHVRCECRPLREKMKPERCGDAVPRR
Protocol: as §1, §2

ErbB3 = target: T6, ErbB3 (UniProt P21860 20-643, limits assumed); experiment: as above
T6 construct: also called v-erb-b2 avian erythroblastic leukemia viral oncogene homolog 3
Protocol: as §1, §2

[3] = target: T7, Recombinant Human VEGF 165 (human, UniProt P15692-4 27-191); experiment: as above
T7 construct: Bought reagent used in the Biacore analyses; also called vascular endothelial growth factor
T7 sequence (P15692 other isoform, or with tags, fused parts or gaps limits assumed): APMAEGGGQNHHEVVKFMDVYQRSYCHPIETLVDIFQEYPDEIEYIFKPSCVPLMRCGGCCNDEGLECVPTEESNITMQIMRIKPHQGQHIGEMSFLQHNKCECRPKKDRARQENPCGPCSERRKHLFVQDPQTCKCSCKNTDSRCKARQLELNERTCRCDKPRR
Protocol: as §1, §2

EGFR on the cell surface = target: T8, EGFR on the cell surface (human, UniProt P00533 25-1210); experiment: flow cytometry on cells carrying the target, antibody or DVD-Ig at 2 ug/mL
T8 construct: whole, on cells; also called epidermal growth factor receptor
Protocol: as §3, §4

B1: DVD1889 (bispecific antibody, human IgG1, kappa)
heavy: not shown
light: DIQMTQSPSSLSASVGDRVTITCRASQSISSYLAWYQQKPGKAPKLLIYGASSRASGVPSRFSGSGSGTDFTLTISSLQPEDFATYYCQQYMSVPITFGQGTKVEIKRTVAAPQIVLIQSPAIMSASPGEKVTMTCSASSSVSYMYWYQQKPGSSPRLLIYDTSNLASGVPVRFSGSGSGTSYSLTISRMEAEDAATYYCQQWSGYPYTFGGGTKLEIKRTVAAPSVFIFPPSDEQLKSGTASVVCLLNNFYPREAKVQWKVDNALQSGNSQESVTEQDSKDSTYSLSSTLTLSKADYEKHKVYACEVTHQGLSSPVTKSFNRGEC
notes: also called DVD1889H; DVD1889L
For B1, the Kd [1] was 500 pM, the koff [1] was 0.00019 s⁻¹ and the kon [1] was 380000 M⁻¹ s⁻¹. The “N-Terminal VD GEO MEAN (FACS geometric mean)” value (from here on “N-Terminal VD GEO MEAN”) (NRP1 on the cell surface) was 15.

B2: DVD1871 (bispecific antibody, human IgG1, kappa)
heavy: not shown
light: QAVLTQPSSLSAPPGASASLTCTLRSGFNVDSYRISWYQQKPGSPPQYLLRYKSDSDKQQGSGVPSRFSGSKDASANAGILLISGLQSEDEADYYCMIWHSSAWVFGGGTKLTVLRTVAAPQIVLIQSPAIMSASPGEKVTMTCSASSSVSYMYWYQQKPGSSPRLLIYDTSNLASGVPVRFSGSGSGTSYSLTISRMEAEDAATYYCQQWSGYPYTFGGGTKLEIKRTVAAPSVFIFPPSDEQLKSGTASVVCLLNNFYPREAKVQWKVDNALQSGNSQESVTEQDSKDSTYSLSSTLTLSKADYEKHKVYACEVTHQGLSSPVTKSFNRGEC
notes: also called DVD1871H; DVD1871L
With B2 the Kd [2] was over 1000 pM, the koff [2] was over 0.01 s⁻¹ and the kon [2] was over 1e+07 M⁻¹ s⁻¹.

B3: DVD1853 (bispecific antibody, human IgG1, kappa)
heavy: not shown
light: DVVMTQSPLSLPVTPGEPASISCRSSQSLLHSNGFNYVDWYLQKPGQSPHLLIYFGSYRASGVPDRFSGSGSGTDFTLKISRVEAEDVGVYYCMQALQTPPWTFGQGTKVEIRRTVAAPQIVLIQSPAIMSASPGEKVTMTCSASSSVSYMYWYQQKPGSSPRLLIYDTSNLASGVPVRFSGSGSGTSYSLTISRMEAEDAATYYCQQWSGYPYTFGGGTKLEIKRTVAAPSVFIFPPSDEQLKSGTASVVCLLNNFYPREAKVQWKVDNALQSGNSQESVTEQDSKDSTYSLSSTLTLSKADYEKHKVYACEVTHQGLSSPVTKSFNRGEC
notes: also called DVD1853H; DVD1853L
B3 showed a Kd [2] of 15000 pM, a koff [2] of 0.00085 s⁻¹ and a kon [2] of 58000 M⁻¹ s⁻¹.

B4: DVD1867 (bispecific antibody, human IgG1, kappa)
heavy: not shown
light: DIQMTQSPSSLSASVGDRVTITCRASQDVSTAVAWYQQKPGKAPKLLIYSASFLYSGVPSRFSGSGSGTDFTLTISSLQPEDFATTYYCQQSYTGTVTFGQGTKVEIKRTVAAPQIVLIQSPAIMSASPGEKVTMTCSASSSVSYMYWYQQKPGSSPRLLIYDTSNLASGVPVRFSGSGSGTSYSLTISRMEAEDAATYYCQQWSGYPYTFGGGTKLEIKRTVAAPSVFIFPPSDEQLKSGTASVVCLLNNFYPREAKVQWKVDNALQSGNSQESVTEQDSKDSTYSLSSTLTLSKADYEKHKVYACEVTHQGLSSPVTKSFNRGEC
notes: Outer domain anti-DLL4 (AB015), inner domain anti-IL-6 (AB040); also called DVD1867H; DVD1867L
With B4 the Kd (Recombinant Human DLL4) was 490 pM, the koff (Recombinant Human DLL4) was 0.00022 s⁻¹ and the kon (Recombinant Human DLL4) was 460000 M⁻¹ s⁻¹.

B5: DVD1869 (bispecific antibody, human IgG1, kappa)
heavy: not shown
light: DIVLTQSPDSLAVSLGERVTMNCKSSQSLLNSGMRKSFLAWYQQKPGQSPKLLIYWASTRESGVPDRFTGSGSGTDFTLTISSVQAEDVAVYYCKQSYHLFTFGSGTKLEIKRTVAAPQIVLIQSPAIMSASPGEKVTMTCSASSSVSYMYWYQQKPGSSPRLLIYDTSNLASGVPVRFSGSGSGTSYSLTISRMEAEDAATYYCQQWSGYPYTFGGGTKLEIKRTVAAPSVFIFPPSDEQLKSGTASVVCLLNNFYPREAKVQWKVDNALQSGNSQESVTEQDSKDSTYSLSSTLTLSKADYEKHKVYACEVTHQGLSSPVTKSFNRGEC
notes: Outer domain anti-PlGF (AB047), inner domain anti-IL-6 (AB040); also called DVD1869H; DVD1869L
Binder B5 has a Kd (Recombinant Human PIGF) of 20 pM, a koff (Recombinant Human PIGF) of 0.00011 s⁻¹ and a kon (Recombinant Human PIGF) of 5.6e+06 M⁻¹ s⁻¹.

B6: AB016 (antibody, V domains shown)
VH: EVQLVESGGGLVQPGGSLRLSCAASGFSFSSEPISWVRQAPGKGLEWVSSITGKNGYTYYADSVKGRFTISADTSKNTAYLQMNSLRAEDTAVYYCARWGKKVYGMDVWGQGTLVTVSS
VL: DIQMTQSPSSLSASVGDRVTITCRASQSISSYLAWYQQKPGKAPKLLIYGASSRASGVPSRFSGSGSGTDFTLTISSLQPEDFATYYCQQYMSVPITFGQGTKVEIKR
notes: Parent antibody; also called AB016VH; AB016VL
With B6 the “N-Terminal VD GEO MEAN” value (NRP1 on the cell surface) was 15.4.

B7: DVD1857 (bispecific antibody, human IgG1, kappa)
heavy: not shown
light: DIQMTQSPSSLSASVGDRVTITCQASQDITNYLNWYQQKPGKAPKLLIYDASNLETGVPSRFSGSGSGTDFTFTISSLQPEDIATYNCQQCENFPITFGQGTRLEIKRTVAAPQIVLIQSPAIMSASPGEKVTMTCSASSSVSYMYWYQQKPGSSPRLLIYDTSNLASGVPVRFSGSGSGTSYSLTISRMEAEDAATYYCQQWSGYPYTFGGGTKLEIKRTVAAPSVFIFPPSDEQLKSGTASVVCLLNNFYPREAKVQWKVDNALQSGNSQESVTEQDSKDSTYSLSSTLTLSKADYEKHKVYACEVTHQGLSSPVTKSFNRGEC
notes: also called DVD1857H; DVD1857L
B7 showed a Kd (ErbB3) of 120 pM, a koff (ErbB3) of 0.00015 s⁻¹ and a kon (ErbB3) of 1.2e+06 M⁻¹ s⁻¹.

B8: DVD1855 (bispecific antibody, human IgG1, kappa)
heavy: not shown
light: DIEMTQSPDSLAVSLGERATINCRSSQSVLYSSSNRNYLAWYQQNPGQPPKLLIYWASTRESGVPDRFSGSGSGTDFTLTISSLQAEDVAVYYCQQYYSTPRTFGQGTKVEIKRTVAAPQIVLIQSPAIMSASPGEKVTMTCSASSSVSYMYWYQQKPGSSPRLLIYDTSNLASGVPVRFSGSGSGTSYSLTISRMEAEDAATYYCQQWSGYPYTFGGGTKLEIKRTVAAPSVFIFPPSDEQLKSGTASVVCLLNNFYPREAKVQWKVDNALQSGNSQESVTEQDSKDSTYSLSSTLTLSKADYEKHKVYACEVTHQGLSSPVTKSFNRGEC
notes: also called DVD1855H; DVD1855L
B8 gave a Kd (ErbB3) of 3700 pM, a koff (ErbB3) of 0.00038 s⁻¹ and a kon (ErbB3) of 100000 M⁻¹ s⁻¹.

B9: DVD1865 (bispecific antibody, human IgG1, kappa)
heavy: not shown
light: DIQMTQSPSSLSASVGDRVTITCSASQDISNYLNWYQQKPGKAPKVLIYFTSSLHSGVPSRFSGSGSGTDFTLTISSLQPEDFATYYCQQYSTVPWTFGQGTKVEIKRTVAAPQIVLIQSPAIMSASPGEKVTMTCSASSSVSYMYWYQQKPGSSPRLLIYDTSNLASGVPVRFSGSGSGTSYSLTISRMEAEDAATYYCQQWSGYPYTFGGGTKLEIKRTVAAPSVFIFPPSDEQLKSGTASVVCLLNNFYPREAKVQWKVDNALQSGNSQESVTEQDSKDSTYSLSSTLTLSKADYEKHKVYACEVTHQGLSSPVTKSFNRGEC
notes: also called DVD1865H; DVD1865L
Work on B9 yielded a Kd [3] of under 2 pM, a koff [3] of under 1e-06 s⁻¹ and a kon [3] of 640000 M⁻¹ s⁻¹.

B10: DVD1901 (bispecific antibody, human IgG1, kappa)
heavy: not shown
light: DIQMTQSPSSLSASVGDRVTITCRASQDVSTAVAWYQQKPGKAPKLLIYSASFLYSGVPSRFSGSGSGTDFTLTISSLQPEDFATYYCQQSYTTPPTFGQGTKVEIKRTVAAPQIVLIQSPAIMSASPGEKVTMTCSASSSVSYMYWYQQKPGSSPRLLIYDTSNLASGVPVRFSGSGSGTSYSLTISRMEAEDAATYYCQQWSGYPYTFGGGTKLEIKRTVAAPSVFIFPPSDEQLKSGTASVVCLLNNFYPREAKVQWKVDNALQSGNSQESVTEQDSKDSTYSLSSTLTLSKADYEKHKVYACEVTHQGLSSPVTKSFNRGEC
notes: also called DVD1901H; DVD1901L
Work on B10 yielded a Kd [3] of 160 pM, a koff [3] of 9.3e-05 s⁻¹ and a kon [3] of 580000 M⁻¹ s⁻¹.

B11: DVD1907 (bispecific antibody, human IgG1, kappa)
heavy: not shown
light: DIQMTQSPSSMSVSVGDRVTITCHSSQDINSNIGWLQQKPGKSFKGLIYHGTNLDDGVPSRFSGSGSGTDYTLTISSLQPEDFATYYCVQYAQFPWTFGGGTKLEIKRTVAAPQIVLIQSPAIMSASPGEKVTMTCSASSSVSYMYWYQQKPGSSPRLLIYDTSNLASGVPVRFSGSGSGTSYSLTISRMEAEDAATYYCQQWSGYPYTFGGGTKLEIKRTVAAPSVFIFPPSDEQLKSGTASVVCLLNNFYPREAKVQWKVDNALQSGNSQESVTEQDSKDSTYSLSSTLTLSKADYEKHKVYACEVTHQGLSSPVTKSFNRGEC
notes: also called DVD1907H; DVD1907L
B11 was tested, and the “N-Terminal VD GEO MEAN” value (EGFR on the cell surface) was 23.5.

B12: DVD1875 (bispecific antibody, human IgG1, kappa)
heavy: not shown
light: DIQMTQSPSSLSASVGDRVTITCQASQDISNYLNWYQQKPGKAPKLLIYDASNLETGVPSRFSGSGSGTDFTFTISSLQPEDIATYFCQHFDHLPLAFGGGTKVEIKRTVAAPQIVLIQSPAIMSASPGEKVTMTCSASSSVSYMYWYQQKPGSSPRLLIYDTSNLASGVPVRFSGSGSGTSYSLTISRMEAEDAATYYCQQWSGYPYTFGGGTKLEIKRTVAAPSVFIFPPSDEQLKSGTASVVCLLNNFYPREAKVQWKVDNALQSGNSQESVTEQDSKDSTYSLSSTLTLSKADYEKHKVYACEVTHQGLSSPVTKSFNRGEC
notes: also called DVD1875H; DVD1875L
For B12, the “N-Terminal VD GEO MEAN” value (EGFR on the cell surface) was 717.

B13: DVD1899 (bispecific antibody, human IgG1, kappa)
heavy: not shown
light: QSALTQPASVSGSPGQSITISCTGTSSDVGSYNVVSWYQQHPGKAPKLIIYEVSQRPSGVSNRFSGSKSGNTASLTISGLQTEDEADYYCCSYAGSSIFVIFGGGTKVTVLGQPKAAPQIVLIQSPAIMSASPGEKVTMTCSASSSVSYMYWYQQKPGSSPRLLIYDTSNLASGVPVRFSGSGSGTSYSLTISRMEAEDAATYYCQQWSGYPYTFGGGTKLEIKRTVAAPSVFIFPPSDEQLKSGTASVVCLLNNFYPREAKVQWKVDNALQSGNSQESVTEQDSKDSTYSLSSTLTLSKADYEKHKVYACEVTHQGLSSPVTKSFNRGEC
notes: also called DVD1899H; DVD1899L
In the case of B13, the Kd (ErbB3) is reported as 6700 pM, the koff (ErbB3) is reported as 0.00026 s⁻¹ and the kon (ErbB3) is reported as 38000 M⁻¹ s⁻¹.

Source: patent publication US20120263722A1 (AbbVie / Abbott, published 2012)
